# Results reported in US10293027B2, “Methods for treating metabolic disorders using FGF” (Salk Institute for Biological Studies, priority 2010, dated 2019).
# “Also recorded” adds a separate entry of the source.
# Experiments:
# Format in all cases: in vivo, mouse
# ob/ob mice [1] = experiment: Chronic FGF-1 treatment for 36 days: glucose, food intake, body composition, serum lipids, liver (Examples 7-10)
# Method: Blood was collected by tail bleeding either in the ad libitum fed state or following overnight fasting. Free fatty acids (Wako), triglycerides (Thermo), and cholesterol (Thermo) were measured using enzymatic colorimetric methods following the manufacturer's instructions. Serum insulin levels were measured using an Ultra Sensitive Insulin ELISA kit (Crystal Chem). Serum adiponectin levels were measured by ELISA (Millipore). Plasma adipokine levels were measured using a Milliplex™ MAP kit (Millipore).
# Tissues were fixed in 4% phosphate-buffered formalin, embedded in paraffin, sectioned at 4 μm, and stained with hematoxylin and eosin according to standard procedures. For immunohistochemistry, tissues were deparaffinized in xylene and rehydrated. Slides were incubated with 5% normal donkey serum in PBS (+0.2% Triton-X100 and 1% BSA) for 30 min, and subsequently sections were incubated overnight with a 1:200 dilution of primary antibodies at 4° C. and using Alexa Fluor 488 or 595 as secondary antibodies for 2 hrs at RT.
# In Example 5, ob/ob male mice (8 wk old) were randomized into three groups and treated with daily subcutaneous (s.c.) injections of recombinant mouse FGF-1 (0.5 mg/kg in PBS), oral rosiglitazone (TZD, 5 mg/kg in 0.5% carboxymethyl cellulose), or vehicle. Blood glucose levels were measure in fed animals one hour after treatment. Total body composition analysis was performed using an EchoMRI-100™ (Echo Medical Systems, LLC).
# To investigate the metabolic effects of chronic FGF-1 treatment in ob/ob mice, eight weeks old male ob/ob mice were treated with vehicle or recombinant mouse FGF-1 (0.5 mg/kg/3 days, s.c.) for a period of 36 days. During this time, glucose levels, food intake, and body composition were monitored.
# ob/ob mice [2] = experiment: Glucose tolerance test after four weeks of FGF-1 administration; conditions: after four weeks of 0.5 mg/kg/3 days s.c.
# Method: (§1) Glucose tolerance tests (GTT) were conducted after overnight fasting. Mice were injected intraperitoneally (i.p.) with 1 g of glucose per/kg body weight, and blood glucose was monitored at 0, 15, 30, 60, 90, and 120 min using a OneTouch Ultra glucometer (Lifescan Inc). Insulin tolerance tests (ITT) were conducted after overnight fasting. Mice were injected i.p. with 0.5 U of insulin/kg body weight (Humulin R; Eli Lilly), and blood glucose was monitored at 0, 15, 30, 60, 90, and 120 min using a OneTouch Ultra glucometer (Lifescan Inc). Real-time metabolic analyses were conducted in an undisturbed room under 12 h/12 h light/dark cycles using a Comprehensive Lab Animal Monitoring System (Columbus Instruments).
# (§2) These tests were carried out as described above.
# ob/ob mice [3] = experiment: Insulin tolerance test after 4 weeks of chronic FGF-1 administration; conditions: after 4 weeks of chronic administration
# Method: as §1, §2
# [4] = tested on: diet-induced obesity mice (C57BL/6); experiment: Single s.c. FGF-1 injection, blood glucose in DIO mice; conditions: single s.c. injection 0.5 mg/kg
# From the text: FIG. 25. FGF1 effects in DIO mice.
# The ob/ob model is considered to represent a very severe diabetic disease. In order to investigate the effect of FGF-1 on less severe diabetic/metabolic disorder models, we tested blood glucose levels in db/db mice and diet induced obese mice.
# ob/ob mice [5] = experiment: Single s.c. injection of human FGF1 or other FGFs, blood glucose in ob/ob mice (Examples 13, 14); conditions: 0.5 mg/kg s.c.
# Method: FIG. 26. Human recombinant FGF-1 is effective in mice.
# FIG. 27. Comparison of FGF1, FGF2, FGF9, and FGF10 effects. Single subcutaneous injection of FGFs (0.5 mg/kg) in ob/ob mice.
# As human recombinant FGF-1 is already being used in the clinic, the present methods of using it to treat metabolic disorders offer a straightforward regulatory path to treatment.
# As explained above, the FGF family of factors bind to members of the FGFR family of receptors with different specificities. FGF-1 binds preferentially to FGFR1 and FGFR4, and can be internalized into a cell expressing these receptors. To determine if other FGF proteins have similar metabolic effects as FGF-1, we tested blood glucose in ob/ob mice treated with FGF-2, FGF-9, and FGF-10 (0.5 mg/kg s.c.). This combination of FGF proteins binds to the spectrum of FGFRs.
# [6] = after the 36 day treatment period
molecule,measurement,setting,value
"FGF-1: recombinant mouse FGF-1 (acidic fibroblast growth factor), a secreted protein that binds heparin and FGF receptors (protein, UniProt P61148 16-155, looked up) Fibroblast growth factor 1: FNLPLGNYKKPKLLYCSNGGHFLRILPDGTVDGTRDRSDQHIQLQLSAESAGEVYIKGTETGQYLAMDTEGLLYGSQTPNEECLFLERLEENHYNTYTSKKHAEKNWFVGLKKNGSCKRGPRTHYGQKAILFLPLPVSSD",blood glucose under chronic treatment,"ob/ob mice [1]; 0.5 mg/kg every third day s.c., 36 days",glucose levels are normalized by the first time point tested (day 2) and remain stable for the remainder of the test period; also recorded: completely normalized blood glucose
same,body weight / weight gain,ob/ob mice [1]; 0.5 mg/kg/3 days s.c.,remains lower than in untreated ob/ob mice; also recorded: reduced weight gain during the first week
same,food intake,ob/ob mice [1]; 0.5 mg/kg/3 days s.c.,"initially results in reduced food intake; also recorded: reduced food intake during the first 1-2 weeks of chronic administration, but after two weeks food intake returned to normal"
same,percent lean mass,ob/ob mice [1]; 0.5 mg/kg/3 days s.c.,significantly higher than in untreated mice; also recorded: increased lean mass as compared with control mice
same,total percent body fat,ob/ob mice [1]; 0.5 mg/kg/3 days s.c.,reduced percentage body fat; also recorded: reduced increase in percent body fat
same,hepatic glycogen,ob/ob mice [1]; [6],much higher; also recorded: increased levels of hepatic glycogen
same,hepatic steatosis (H&E staining of liver),ob/ob mice [1]; [6],"much less steatosis, and little if any inflammation; also recorded: Steatosis is dramatically reduced compared to control"
same,glucose tolerance (GTT),ob/ob mice [2],cleared glucose more effectively than untreated controls; also recorded: enhances glucose tolerance
same,insulin tolerance / insulin sensitivity (ITT),ob/ob mice [3],increased insulin sensitivity
same,blood glucose in diet-induced obesity mice,[4]; 0.5 mg/kg,effective for reducing blood glucose levels in both systems
same,blood glucose in diet-induced obesity mice,"[4]; listed as FGF1, 0.5 mg/kg",normalizes blood glucose
same,blood glucose in ob/ob mice after a single s.c. injection,ob/ob mice [5],Only FGF1 has glucose normalizing effects
